Data from patent US20220064310A1 (DEVELOPMENT CENTER FOR BIOTECHNOLOGY, published 2022).

Legend:
[1] = target: T1, mouse CSF-1R (mouse, UniProt P09581 20-511, limits assumed); assay: not described
T1 sequence (looked up): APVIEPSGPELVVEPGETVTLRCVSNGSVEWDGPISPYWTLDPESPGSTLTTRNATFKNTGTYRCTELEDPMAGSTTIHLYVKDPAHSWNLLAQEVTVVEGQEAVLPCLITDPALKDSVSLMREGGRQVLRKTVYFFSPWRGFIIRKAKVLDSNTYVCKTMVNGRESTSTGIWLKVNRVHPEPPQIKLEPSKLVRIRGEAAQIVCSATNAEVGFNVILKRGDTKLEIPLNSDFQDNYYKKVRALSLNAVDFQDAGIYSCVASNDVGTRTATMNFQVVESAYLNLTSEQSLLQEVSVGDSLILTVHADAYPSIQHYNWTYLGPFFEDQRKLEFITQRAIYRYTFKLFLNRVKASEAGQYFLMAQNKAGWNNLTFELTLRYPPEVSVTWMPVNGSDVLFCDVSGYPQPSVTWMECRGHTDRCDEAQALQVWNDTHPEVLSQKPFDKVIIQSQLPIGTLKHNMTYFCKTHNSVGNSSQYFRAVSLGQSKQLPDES

[2] = target: T2, human CSF-1R-Fc protein (M-CSF R/CD115 Fc chimera, R&D Systems) (human, UniProt P07333 20-512); assay: ELISA, 100 ng human CSF-1R-Fc coated, four parameter logistic fit
T2 construct: Fc part of the bought chimera not given
Description: (§1) After binding and washing, the bound mAb AB21 was assessed using a horseradish peroxidase conjugated secondary antibody.
(§2) One hundred (100) ng of human CSF-1R-Fc protein was coated on a 96-well ELISA plate, and the plate was further washed with PBS. Serial dilutions from 1×10⁻¹² to 1×10⁻⁸ M of AB21 mAb antibody were added to the plate, and the plate was incubated at 37° C. for 1 hour. A goat anti-mouse IgG conjugated with horseradish peroxidase (HRP) was added. After 1 hour, 3,3′,5,5′-Tetramethylbenzidine (TMB) was added and OD450 was read. Every study was repeated three times. Data were presented as mean SD. OD readings and concentrations of antibodies were used to make a multiple scatter plot using GraphPad Prism 5. The values were predicted by four parameter logistic fit.

[3] = target: T3, CSF-1R ECD variant 228-233A (human, UniProt P07333 20-512); assay: ELISA, coated CSF-1R ECD variant 228-233A, AB21 titrated, Abs450
T3 chain: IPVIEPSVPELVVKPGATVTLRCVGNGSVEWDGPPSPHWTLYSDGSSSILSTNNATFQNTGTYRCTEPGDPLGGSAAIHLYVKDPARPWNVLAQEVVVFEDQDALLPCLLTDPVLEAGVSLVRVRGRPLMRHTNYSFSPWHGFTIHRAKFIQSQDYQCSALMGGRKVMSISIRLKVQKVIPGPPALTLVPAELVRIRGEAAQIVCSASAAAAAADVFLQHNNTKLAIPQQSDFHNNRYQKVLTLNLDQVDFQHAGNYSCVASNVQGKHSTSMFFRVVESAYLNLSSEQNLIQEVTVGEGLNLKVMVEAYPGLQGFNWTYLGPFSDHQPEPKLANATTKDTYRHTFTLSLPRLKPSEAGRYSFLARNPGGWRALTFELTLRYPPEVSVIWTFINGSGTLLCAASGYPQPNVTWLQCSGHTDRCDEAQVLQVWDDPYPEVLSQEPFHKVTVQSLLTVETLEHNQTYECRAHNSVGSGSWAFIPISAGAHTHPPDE
Description: as §2
To determine the binding epitopes of anti-CSF-1R antibody AB21, different CSF-1R extracellular domain variants that certain residues were replaced with alanine were constructed. […] After the variant proteins were purified, the binding affinity of AB21 mAb to these CSF-1R-ECD variants were analyzed by ELISA with the process described in Example 1.

[4] = target: T4, human CSF-1R extracellular domain (CSF-1R-ECD) (human, UniProt P07333 20-512); assay: SPR BIAcore T200, AB21 amine-coupled, CSF-1R-ECD 0.3125-40 nM as analyte, 25 C
From the text: (§3) To know the biding kinetics difference among individual antibodies, surface plasmon resonance (SPR) measurement with a BIAcore T200 (BIAcore, Inc., Piscataway, N.J.) was used as previously described (Karlsson & Fait, (1997) J. Immunol Methods 200:121-133). Carboxymethylated dextran biosensor chips (CMS, BIAcore Inc.) were activated with N-ethyl-N′-(3-dimethyl aminopropyl)-carbodiimide hydrochloride (EDC) and N-hydroxy succinimide (NHS) according to the supplier's instructions. AB21 mAb was diluted with 10 mM sodium acetate, pH 4.8, into 5 microgram/ml before injection at a flow rate of 20 micro L/minute to achieve approximately 100 response units (RU) of coupled protein followed by the injection of 1M ethanolamine to block unreacted groups. For kinetics measurements, two-fold serial dilutions of CSF-1R-ECD (0.3125 nM to 40 nM) were injected in HBS-P BIAcore running buffer provided by the manufacturer (BIAcore, Inc., Piscataway, N.J.) at 25° C. at a flow rate of 30 μL/min, and binding responses on the AB21 mAb were corrected by subtraction of responses on a blank flow cell. Association rates (kon or ka) and dissociation rates (koff or kd) were calculated using a simple one-to-one Langmuir binding model with separate fittings of kon and koff was used. (BIAcore™ Evaluation Software version 3.2).

[5] = target: T2, human CSF-1R-Fc protein (M-CSF R/CD115 …); assay: ELISA, coated M-CSF R/CD115 Fc chimera (R&D), AB21 titrated, goat anti-mouse IgG-HRP, Abs450
Description: as §1, §2

[6] = target: T5, human CSF-1R on the cell surface (THP-1 cells, endogenous); Ba/F3 cells stably expressing full-length human … (human, UniProt P07333 20-972); assay: flow cytometry on THP-1 cells, FITC anti-mouse secondary antibody, readout CD115+ of single cells (%)
T5 construct: whole, on cells; also called Ba/F3-CSF-1R; Ba/F3-hCSF-1R
Description: In addition to binding CSF-1R ECD in vitro, antibodies of the invention can also bind CSF-1R on cells. In this example, THP-1 cells (human monocytic cell line, ATCC® TIB-202™) were stained in different concentrations of antibodies (AB21) from 6 to 0.625 μg/ml. After washing, cells were stained with secondary antibody FITC anti-mouse (1:500 dilution). Cells were fixed with a fixation buffer (FluroFix™ buffer, Biolegend) and analyzed with LSRFortessa FACS analyzer (Becton Dickson, US). […] The dose-dependent binding fits a sigmoid curve in the semi-log plot, indicating binding to a specific site (i.e., the antibody binds specifically to the target on the THP-1 cells).

[7] = target: T4, human CSF-1R extracellular domain …; assay: Biacore T200 SPR, AB21 amine-coupled on the chip, CSF-1R-ECD injected at 0.3125 to 40 nM, 1:1 Langmuir fit
From the text: as §3

[8] = target: T6, CSF-1R-ECD-human Fc (in house) (human, UniProt P07333 20-512); assay: blocking ELISA: coated CSF-1R-ECD-human Fc, AB21 titrated together with M-CSF, bound CSF-1 detected with biotinylated anti-CSF-1 BAF216 and streptavidin-HRP, Abs450
T6 construct: In-house fusion; also called CSF-1R-ECD-hFc; CSF1R-ECD-hFc; not shown: human Fc
Description: CSF-1R-ECD-human Fe (in house) is diluted to 1.2 μg/ml with coating buffer and coating overnight at 4° C. After incubation step, plates were washed 1 time with the wash buffer and blocking with 1% casein blocking buffer at room temperature for 2 hours. Different dilutions of purified AB21 antibodies were incubated with 250 ng/ml of M-CSF (R&D system, 216-GMP-025) in dilution buffer at 37° C. for 1 hour. After 5 times of wash, the ligand which bound to the receptor can be detected by 50 ng/ml biotinylated […] clone BAF216 (R&D Systems, UK) and 1:5000 diluted streptavidin HRP (Roche Diagnostics GmbH, DE, Cat. No. 11089153001) after 1 hour incubation. Anti CSF-1R SC 2-4A5 (Santa Cruz Biotechnology, US), which inhibits the ligand-receptor interaction, was used as positive control. Plates were developed with TMB Microwell Peroxidase Substrate (KPL, 95059-154). Absorbance was measured at 450 nm. A decrease of absorbance is found, if the anti-CST-1R antibody causes a release of CSF-1 from the dimeric complex. […] Therefore, antibodies of the invention can be used to prevent or treat diseases mediated by CSF-1R or CSF-1.

- binding result [1]: no binding
- Kd [2]: 0.745 nM
- Kd [4]: 0.123 nM
- EC50 [5]: 0.745 nM
- EC50 [6]: 0.374 nM
- koff [7]: 4.9e-05 s⁻¹
- kon [7]: 399000 M⁻¹ s⁻¹
- IC50 (read off the curve) [8]: ~2 nM
B1: mouse hybridoma anti-human CSF-1R antibody mAb AB21 (antibody, V domains shown)
VH: EVQLQQSGPELEKPGASVKISCKASGYSFTGYNMNWVKQSNGKSLEWIGNIDPYYGGTTYNQKFKGKATLTVDKSSSTAYMQLKSLTSEDSAVYYCARRGDYSGSSYWYFDVWGAGTTVTVSS
VL: DIQMTQSSSYLSVSLGGRVTITCKASDHINNWLAWYQQKPGNAPRLLISGATSLETGVPSRFSGSGSGKDYTLSITSLQTEDVVTYYCQQYWSTPFTFGSGTKLEIK
notes: Mouse monoclonal antibody purified from hybridoma ascites (Protein A); also called AB21 mAb; mAb 21
- binding result [3]: no binding (tested: about 3e-8 M (log -7.5 on the axis))
